Results reported in patent publication US20140249468.

Measured: fluorescence activation (recovery of Cy5.5 fluorescence on cleavage)

activated recombinant human MMP-13
>25-fold vs. without MMP: MMP-P12 | MMP-P24 | MMP-P67 | MMP-P4 | MMP-P0
